The labels stand for the following.
B1: NF2 (merlin) isoform 7, human, full length (507 aa, lacks exons 2-3 = isoform-1 residues 39-121; exon-16 C-terminus), P35240-4 (parent)
chain: MAGAIASRMSFSSLKRKQPKTFTVRIVTMDAEMEFNCEVKKQILDEKIYCPPEASVLLASYAVQAKYGDYDPSVHKRGFLAQEELLPKRVINLYQMTPEMWEERITAWYAEHRGRARDEAEMEYLKIAQDLEMYGVNYFAIRNKKGTELLLGVDALGLHIYDPENRLTPKISFPWNEIRNISYSDKEFTIKPLDKKIDVFKFNSSKLRVNKLILQLCIGNHDLFMRRRKADSLEVQQMKAQAREEKARKQMERQRLAREKQMREEAERTRDELERRLLQMKEEATMANEALMRSEETADLLAEKAQITEEEAKLLAQKAAEAEQEMQRIKATAIRTEEEKRLMEQKVLEAEVLALKMAEESERRAKEADQLKQDLQEAREAERRAKQKLLEIATKPTYPPMNPIPAPLPPDIPSFNLIGDSLSFDFKDTDMKRLSMEIEKEKVEYMEKSKHLQEQLNELKTEIEALKLKERETALDILHNENSDRGGSSKHNTIKKPQAQGRRPICI

The variants in this assay derive from B1. Briefly: reverse yeast two-hybrid deep mutational scan (rY2H-seq): NF2 isoform 7 mutant library as bait mated with wild-type prey strains; selection on medium lacking adenine for non-interacting pairs; NextSeq paired-end sequencing; enrichment vs …. The conditions noted are these: yeast diploids after mating (RBait_S3 x RPrey_S3), 30 °C, selection for reporter genes on NB agar, HIGHER = WEAKER BINDING (the opposite of display enrichments): higher = stronger loss of interaction: reverse Y2H selects yeast in which bait and prey do NOT interact (growth without adenine), so a …, hits-only table, scale: rY2H score, numbering: uniprot, sequence starts at 1.

Setting [1] is: with EMILIN1 (elastin microfibril interfacer 1), Q9Y6C2, human ABL2 co-expressed as the kinase-dead K35M mutant ….
Where [2] appears, read: with KDM1A (lysine-specific histone demethylase 1A; the table's label AOF2 is a gene synonym of KDM1A), O60341, human tyrosine kinase ABL2 co-expressed as the active kinase ….
Where [3] appears, read: with EMILIN1 (elastin microfibril interfacer 1), Q9Y6C2, human tyrosine kinase ABL2 co-expressed as the active kinase ….
Where [4] appears, read: with KDM1A (lysine-specific histone demethylase 1A; the table's label AOF2 is a gene synonym of KDM1A), O60341, human ABL2 co-expressed as the kinase-dead K35M mutant ….
[5] abbreviates: with PIK3R3 (phosphatidylinositol 3-kinase regulatory subunit gamma), Q92569, human tyrosine kinase ABL2 co-expressed as the active kinase ….
The mark [6] stands for this setting: with NF2 C-terminal domain (wild type; homomeric NF2-NF2 interaction), P35240, human ABL2 co-expressed as the kinase-dead K35M mutant …, partner unresolved.

Where “and” joins values, the source holds several entries; their conditions need not be identical. Identical values can stand only once.

D484A: under setting [1], the enrichment is 2.01.
As to D484L, the enrichment runs as follows: under setting [1], 2.38; under setting [2], 4.48.
As to P396L, the enrichment reads like this: under setting [1], 3.03; under setting [3], 2.65; under setting [4], 2.88.
As for P396A, the enrichment reads like this: under setting [1], 1.61 and 2.83; under setting [2], 4.55; under setting [5], 1.66.
R293E: the enrichment is, setting by setting: under setting [1], 2.19; under setting [3], 2.64.
Regarding R293A, the enrichment reads like this: under setting [1], 1.56; under setting [3], 4.55 and 5.13; under setting [4], 2.38; under setting [2], 6.57; under setting [6], 1.81; under setting [5], 10.8 and 3.63.
On to A319E, for which the enrichment is 2.5 under setting [1]; 5.2 and 4.57 under setting [3]; 5.63 under setting [2]; 1.39 and 4.04 under setting [6]; 4.37 under setting [5].
In the case of A319K, the enrichment by setting is: under setting [1], 3.24; under setting [3], 1.77; under setting [4], 7.16.
On to T297A, for which the enrichment under setting [1] was 2.57 and the enrichment under setting [2] turned out to be 2.94.
Take R384A: the enrichment came out at 2.36 under setting [1] and 2.38 under setting [6].
As for Q387L, the enrichment under setting [1] amounted to 1.46, the enrichment under setting [3] turned out to be 1.83, the enrichment under setting [2] amounted to 2.07 and the enrichment under setting [5] amounted to 5.44.
For the variant L342A, the enrichment under setting [1] was determined as 2.66, the enrichment under setting [3] was found to be 3.99 and the enrichment under setting [4] came out at 2.28.
On to L342K, for which the enrichment reads like this: under setting [1], 1.65 and 3.1; under setting [3], 2.14 and 6.11; under setting [4], 6.76 and 4.54; under setting [2], 1.63.
With L342E, the enrichment runs as follows: under setting [1], 3.3 and 9.12; under setting [3], 3.94; under setting [4], 4.91; under setting [6], 1.9.
Consider A333K, for which the enrichment is 1.75 under setting [1]; 5.66 under setting [3]; 4.26 and 3.03 under setting [4].
For the variant A333L, the enrichment is 2.47 under setting [1], 1.58 under setting [4] and 1.46 under setting [2].
Turning to A333T, under setting [1], the enrichment amounted to 2.19.
As to K427T, the enrichment under setting [1] was 2.98.
For the variant I507R, the enrichment was 1.52 under setting [1] and 2.16 under setting [6].
Regarding P399E, the enrichment by setting is: under setting [1], 3.23; under setting [3], 1.72; under setting [4], 1.77 and 4.25; under setting [2], 2.45; under setting [6], 1.43.
For the variant V352E, the enrichment under setting [1] stood at 1.87.
For E337T, under setting [1], the enrichment was 5.26.
As for E337K, the enrichment is, setting by setting: under setting [1], 2.71; under setting [3], 4.3 and 3.24; under setting [4], 2.29.
Take T394L: the enrichment under setting [1] was 5.41, the enrichment under setting [4] was determined as 13.8, the enrichment under setting [6] was found to be 9 and the enrichment under setting [5] is 9.86.
As for E303V, under setting [1], the enrichment is 5.6 and 16.3.
In the case of E359K, the enrichment is 1.99 under setting [1], 1.99 under setting [3] and 7.74 under setting [4].
G419V: the enrichment under setting [1] is 2.41.
With G419K, under setting [1], the enrichment turned out to be 1.49.
On to G419A, for which the enrichment is, setting by setting: under setting [1], 1.71; under setting [2], 1.44.
Take E472R: the enrichment under setting [1] is 2.84 and 2.55.
Take K281A: the enrichment under setting [1] was determined as 6.85.
K313A: the enrichment under setting [1] is 2.05, the enrichment under setting [4] is 1.63, the enrichment under setting [2] was found to be 3.82 and the enrichment under setting [5] came out at 3.82.
On to P409L, for which the enrichment is, setting by setting: under setting [1], 2.46; under setting [4], 1.48 and 1.82; under setting [2], 3.03; under setting [6], 3.35 and 2.55; under setting [5], 1.63.
Turning to P409A, the enrichment under setting [1] came out at 2.09; the enrichment under setting [3] was 3.21 and 3.14; the enrichment under setting [4] came out at 4.62; the enrichment under setting [2] is 3.57 and 4.04.
Take M326E: the enrichment reads like this: under setting [1], 4.89; under setting [3], 3.65; under setting [4], 6.72; under setting [2], 1.86; under setting [6], 1.94.
In the case of M292S, the enrichment runs as follows: under setting [1], 1.52; under setting [4], 1.74; under setting [6], 1.49; under setting [5], 1.46.
Regarding M292A, the enrichment under setting [1] is 6.8.
For Q345T, the enrichment runs as follows: under setting [1], 23.4; under setting [3], 13.4; under setting [4], 21.7; under setting [2], 6.27.
With T473L, the enrichment was 4.41 under setting [1]; 8.75 under setting [4]; 3.74 and 2.38 under setting [6]; 4.41 under setting [5].
With Q279K, the enrichment is 2.01 under setting [1]; 2.32 and 4.35 under setting [3]; 6.01 under setting [4]; 7.05 under setting [5].
In the case of Q327K, under setting [1], the enrichment was 1.55.
For the variant Q327Y, the enrichment under setting [1] was 2.5.
M343A: the enrichment by setting is: under setting [1], 2.55 and 1.66; under setting [3], 2.55 and 2.14.
In the case of M343E, the enrichment reads like this: under setting [1], 2.88 and 3.18; under setting [3], 3.19; under setting [4], 3.76; under setting [2], 2.07 and 4.72; under setting [5], 1.45.
With M343K, the enrichment was determined as 3.5 under setting [1], 1.81 under setting [3] and 3.6 under setting [2].

Source of the values: publication PMC10244618.
